This test addresses BLM (UniProt P54132). The test can be described thus: co-IP and western blot. To be noted: reference: wild type USP37; sites S114.

With USP37 (from UniProt Q86T82) S114A, the “binding against the reference” value is given as “weaker”.

(Values after paper PMC8565321.)
